pKa data for one substance are collected here from article PMC5377774.

The target of the data set is His827 (UniProt position 827, GQFLDHDLDST). Kind of data set: kinetics (stopped-flow UV-vis spectroscopy). Conditions: 25 °C (stated for the stopped-flow reactions in general; not restated for the pH profile); Citrate phosphate buffer pH 4-5.5; phosphate buffer pH 5.5-8; carbonate buffer pH 9 and 10. A concentration of 100 mM is given for the analogous bromide pH profile in the Fig. 7D caption.; Ferric high-spin resting enzyme reacting with H2O2 to form compound I; heme covalently linked.

Regarding “Peroxidasin 1, truncated construct hsPxd01-con4 (four Ig domains + peroxidase domain) (Homo sapiens)”, the pKa entry is recorded as “∼4.7”.
